Columns and labels:
[1] = target: TDP-43 NTD NTD (Homo sapiens) (UniProt Q13148); test: AUC; conditions: cited from earlier work
[2] = target: the molecule itself; test: SEC; 0.5 mg/mL (45 µM) NTD loaded, 0.0% SB3-10, Superdex 200 Increase 10/300 GL, 5 mM sodium phosphate, 50 mM NaCl, 1 mM DTT, pH 7.4, 4 °C; calibration with folded standards

TDP-43 NTD NTD, sequence (Q13148 1-80): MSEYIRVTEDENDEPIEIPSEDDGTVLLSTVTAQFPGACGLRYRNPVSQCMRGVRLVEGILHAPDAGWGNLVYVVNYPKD

Molecule | Kd [1] | stoichiometry N [2]
TDP-43 NTD NTD (from UniProt Q13148) | 40 µM | –
N-terminal domain (NTD) of TAR DNA-binding protein 43 (TDP-43) (domain or fragment, UniProt Q13148 1-77, looked up, whole protein has 414 residues; also called TDP-43 NTD; native NTD; source: purified as previously described [24]) MSEYIRVTEDENDEPIEIPSEDDGTVLLSTVTAQFPGACGLRYRNPVSQCMRGVRLVEGILHAPDAGWGNLVYVVNY | – | ~2

Source: publication PMC9268139, “Conversion of the Native N-Terminal Domain of TDP-43 into a Monomeric Alternative Fold with Lower Aggregation Propensity” (Molecules, 2022)
